According to paper PMC6165294:

Assays:
[1] = biological target: GST-fusion NaV1.1 IQ domain (amino acids 1909-1936) (human); assay: pull-down; GST-fusion IQ or mutant (2-4 ug) immobilised on GS-4B; CaM or mutant 0.07-7.0 uM; [Ca2+] 500 nM; 150 mM NaCl, 50 mM Tris pH 8.0, 4 h at 4 C; Coomassie densitometry, one- or two-sites Hill fit; apparent constants
[2] = biological target: GST-fusion NaV1.1 IQ domain dephosphorylated by CIP (human); assay: pull-down; phosphorylation series (Figure 6, Table 3): GST-IQ on GS-4B beads as control, treated with CaMKIIT286D or with CIP, then CaM 0.07-7 uM; [Ca2+] ≈ free; two-sites Hill fit; apparent constants
[3] = biological target: GST-fusion NaV1.1 IQ domain phosphorylated by CaMKII (human); assay: as above
[4] = biological target: GST-fusion NaV1.1 IQ domain (amino acids 1909-1936) (human); assay: as above
[5] = biological target: GST-fusion NaV1.1 IQ domain dephosphorylated by CIP (human); assay: pull-down; phosphorylation series (Figure 6, Table 3): GST-IQ on GS-4B beads as control, treated with CaMKIIT286D or with CIP, then CaM 0.07-7 uM; [Ca2+] 2 mM; two-sites Hill fit; apparent constants
[6] = biological target: GST-fusion NaV1.1 IQ domain phosphorylated by CaMKII (human); assay: as above
[7] = biological target: GST-fusion NaV1.1 IQ domain (amino acids 1909-1936) (human); assay: as above
[8] = biological target: GST-fusion NaV1.1 IQ domain dephosphorylated by CIP (human); assay: pull-down; phosphorylation series (Figure 6, Table 3): GST-IQ on GS-4B beads as control, treated with CaMKIIT286D or with CIP, then CaM 0.07-7 uM; [Ca2+] 500 nM; two-sites Hill fit; apparent constants
[9] = biological target: GST-fusion NaV1.1 IQ domain phosphorylated by CaMKII (human); assay: as above
[10] = biological target: GST-fusion NaV1.1 IQ domain (amino acids 1909-1936) (human); assay: as above
[11] = biological target: GST-fusion NaV1.1 IQ domain (amino acids 1909-1936) (human); assay: pull-down; GST-fusion IQ or mutant (2-4 ug) immobilised on GS-4B; CaM or mutant 0.07-7.0 uM; [Ca2+] 100 nM; 150 mM NaCl, 50 mM Tris pH 8.0, 4 h at 4 C; Coomassie densitometry, one- or two-sites Hill fit; apparent constants
[12] = biological target: GST-fusion NaV1.1 IQ domain dephosphorylated by CIP (human); assay: pull-down; phosphorylation series (Figure 6, Table 3): GST-IQ on GS-4B beads as control, treated with CaMKIIT286D or with CIP, then CaM 0.07-7 uM; [Ca2+] 100 nM; two-sites Hill fit; apparent constants
[13] = biological target: GST-fusion NaV1.1 IQ domain phosphorylated by CaMKII (human); assay: as above
[14] = biological target: GST-fusion NaV1.1 IQ domain (amino acids 1909-1936) (human); assay: as above
[15] = biological target: GST-fusion NaV1.1 IQ domain (amino acids 1909-1936) (human); assay: pull-down; GST-fusion IQ or mutant (2-4 ug) immobilised on GS-4B; CaM or mutant 0.07-7.0 uM; [Ca2+] 2 mM; 150 mM NaCl, 50 mM Tris pH 8.0, 4 h at 4 C; Coomassie densitometry, one- or two-sites Hill fit; apparent constants
[16] = biological target: GST-fusion NaV1.1 IQ domain (amino acids 1909-1936) (human); assay: pull-down; GST-fusion IQ or mutant (2-4 ug) immobilised on GS-4B; CaM or mutant 0.07-7.0 uM; [Ca2+] ≈ free; 150 mM NaCl, 50 mM Tris pH 8.0, 4 h at 4 C; Coomassie densitometry, one- or two-sites Hill fit; apparent constants

Kd1 (site 1 of the two-sites fit) [1]: 0.0433 µM
Kd1 (site 1 of the two-sites fit) [2]: 0.0371 µM
Kd2 (site 2 of the two-sites fit) [2]: 2.03 µM
Kd1 (site 1 of the two-sites fit) [3]: 0.0361 µM
Kd2 (site 2 of the two-sites fit) [3]: 1.44 µM
Kd1 (site 1 of the two-sites fit) [4]: 0.0376 µM
Kd2 (site 2 of the two-sites fit) [4]: 2.49 µM
Kd1 (site 1 of the two-sites fit) [5]: 0.0383 µM
Kd2 (site 2 of the two-sites fit) [5]: 2.01 µM
Kd1 (site 1 of the two-sites fit) [6]: 0.0473 µM
Kd2 (site 2 of the two-sites fit) [6]: 1.95 µM
Kd2 (site 2 of the two-sites fit) [7]: 1.1 µM
Kd2 (site 2 of the two-sites fit) [8]: 3.95 µM
Kd1 (site 1 of the two-sites fit) [9]: 0.013 µM
Kd2 (site 2 of the two-sites fit) [9]: 8.17 µM
Kd2 (site 2 of the two-sites fit) [10]: 5.04 µM
Kd1 (site 1 of the two-sites fit) [11]: 0.063 µM
Kd2 (site 2 of the two-sites fit) [11]: 2.91 µM
Kd1 (site 1 of the two-sites fit) [12]: 0.0365 µM
Kd2 (site 2 of the two-sites fit) [12]: 1.42 µM
Kd1 (site 1 of the two-sites fit) [13]: 0.0251 µM
Kd2 (site 2 of the two-sites fit) [13]: 3.03 µM
Kd2 (site 2 of the two-sites fit) [14]: 3.09 µM
Kd1 (site 1 of the two-sites fit) [15]: 0.0682 µM
Kd2 (site 2 of the two-sites fit) [15]: 0.559 µM
Kd2 (site 2 of the two-sites fit) [16]: 4.58 µM
Substance: calmodulin (CaM), human, wild type (from UniProt P0DP23 1-149) (natural protein)
